Assay results from paper doi:10.64898/2025.12.30.697132, “Explaining how mutations affect AlphaFold predictions” (bioRxiv, 2025).

Biological target: the molecule itself
Test: 19F NMR; 4-F-Phe labelled hXCL1(1-72) at 100 uM in 20 mM NaPO4, 50 mM NaCl, pH 6.5, 35 °C; populations of the dimer fold and the monomeric chemokine fold

B1: Human XCL1(1-72) (domain or fragment, UniProt P47992 22-93, looked up)
chain: VGSEVSDKRTCVSLTTQRLPVSRIKTYTITEGSLRAVIFITKRGLKVCADPQATWVRDVVRSMDRKSNTRNN
modifications: 4-fluorophenylalanine, presumed at F39 (single fluorine atom verified by electrospray mass spectrometry)
notes: XCL1, human, residues 1-72, lacks the disordered C-terminal tail (residues 73-93); The protein exchanges between a monomeric chemokine fold and a dimeric beta-sheet fold; also called hXCL1(1-72); wildtype XCL1
How did the “percent of the protein in the dimer fold” value turn out when B1 was run?
The value was 77%.
